By Kd is commonly meant the free concentration of one partner at which half of the binding sites on the other are occupied at equilibrium, for simple one-to-one binding. Higher therefore signals weaker binding.

Sequences and labels used below:
B1: Nfasc 1198 to 1214 E1204A (domain or fragment, UniProt P97685 1198-1214, looked up)
chain: GEGQFNADGSFIGQYTV
notes: source: E. coli BL21 (DE3), purified (Ni-NTA, size-exclusion chromatography)
B2: Nfasc 1198 to 1214 Y1212E (domain or fragment, UniProt P97685 1198-1214, looked up)
chain: GEGQFNEDGSFIGQETV
notes: also called Y1212E phosphorylation mimic variant; source: E. coli BL21 (DE3), purified (Ni-NTA, size-exclusion chromatography)
B3: Nfasc 1198 to 1214 F1202Q (domain or fragment, UniProt P97685 1198-1214, looked up)
chain: GEGQQNEDGSFIGQYTV
notes: as for B1
B4: NrCAM (domain or fragment)
chain: RRNKGGKYPVKEKEDAHADPEIQPMKEDDGTFGEYSDAEDHKPLKKGSRTPSDRTVKKEDSDDSLVDYGEGVNGQFNEDGSFIGQYSGKKEKEPAEGNESSEAPSPVNAMNSFV
B5: CHL1 (domain or fragment)
chain: IEIPSSVQQVPTIIKQSKVQVAFPFDEYFQIECEAKGNPEPTFSWTKDGNPFYFTDHRIIPSNNSGTFRIPNEGHISHFQGKYRCFASNKLGIAMSEEIEFIVPSVPKFPKEKIDPLEVEEGDPIVLPCNPPKGLPPLHIYWMNIELEHIEQDERVYMSQKGDLYFANVEEKDSRNDYCCFAAFPRLRTIVQKMPMKLTVNSSNSIKQRKPKLLLPPTESGSESSITILKGEILLLECFAEGLPTPQVDWNKIGGDLPKGRETKENYGKTLKIENVSYQDKGNYRCTASNFLGTATHDFHVIVEEPPRWTKKPQSAVYSTGSNGILLCEAEGEPQPTIKWRVNGSPVDNHPFAGDVVFPREISFTNLQPNHTAVYQCEASNVHGTILANANIDVVDVRPLIQTKDGENYATVVGYSAFLHCEFFASPEAVVSWQKVEEVKPLEGRRYHIYENGTLQINRTTEEDAGSYSCWVENAIGKTAVTANLDIRNATKLRVSPKNPRIPKLHMLELHCESKCDSHLKHSLKLSWSKDGEAFEINGTEDGRIIIDGANLTISNVTLEDQGIYCCSAHTALDSAADITQVTVLDVPDPPENLHLSERQNRSVRLTWEAGADHNSNISEYIVEFEGNKEEPGRWEELTRVQGKKTTVILPLAPFVRYQFRVIAVNEVGRSQPSQPSDHHETPPAAPDRNPQNIRVQASQPKEMIIKWEPLKSMEQNGPGLEYRVTWKPQGAPVEWEEETVTNHTLRVMTPAVYAPYDVKVQAINQLGSGPDPQSVTLYSGEDYPDTAPVIHGVDVINSTLVKVTWSTVPKDRVHGRLKGYQINWWKTKSLLDGRTHPKEVNILRFSGQRNSGMVPSLDAFSEFHLTVLAYNSKGAGPESEPYIFQTPEGVPEQPTFLKVIKVDKDTATLSWGLPKKLNGNLTGYLLQYQIINDTYEIGELNDINITTPSKPSWHLSNLNATTKYKFYLRACTSQGCGKPITEESSTLGEGSKGIGKISGVNLTQKTHPIEVFEPGAEHIVRLMTKNWGDNDSIFQDVIETRGREYAGLYDDISTQGWFIGLMCAIALLTLLLLTVCFVKRNRGGKYSVKEKEDLHPDPEIQSVKDETFGEYSDSDEKPLKGSLRSLNRDMQPTESADSLVEYGEGDHGLFSEDGSFIGAYAGSKEKGSVESNGSSTATFPLRA
B6: full-length Nfasc cytoplasmic tail (residues 1132-1240) (domain or fragment)
chain: KRSRGGKYPVREKKDVPLGPEDPKEEDGSFDYSDEDNKPLQGSQTSLDGTIKQQESDDSLVDYGEGGEGQFNEDGSFIGQYTVRKDKEETEGNESSEATSPVNAIYSLA

In one assay the target is T1, AnkG ANK repeats (residues 38-855, R1-24) (UniProt O70511 38-855).
T1 chain: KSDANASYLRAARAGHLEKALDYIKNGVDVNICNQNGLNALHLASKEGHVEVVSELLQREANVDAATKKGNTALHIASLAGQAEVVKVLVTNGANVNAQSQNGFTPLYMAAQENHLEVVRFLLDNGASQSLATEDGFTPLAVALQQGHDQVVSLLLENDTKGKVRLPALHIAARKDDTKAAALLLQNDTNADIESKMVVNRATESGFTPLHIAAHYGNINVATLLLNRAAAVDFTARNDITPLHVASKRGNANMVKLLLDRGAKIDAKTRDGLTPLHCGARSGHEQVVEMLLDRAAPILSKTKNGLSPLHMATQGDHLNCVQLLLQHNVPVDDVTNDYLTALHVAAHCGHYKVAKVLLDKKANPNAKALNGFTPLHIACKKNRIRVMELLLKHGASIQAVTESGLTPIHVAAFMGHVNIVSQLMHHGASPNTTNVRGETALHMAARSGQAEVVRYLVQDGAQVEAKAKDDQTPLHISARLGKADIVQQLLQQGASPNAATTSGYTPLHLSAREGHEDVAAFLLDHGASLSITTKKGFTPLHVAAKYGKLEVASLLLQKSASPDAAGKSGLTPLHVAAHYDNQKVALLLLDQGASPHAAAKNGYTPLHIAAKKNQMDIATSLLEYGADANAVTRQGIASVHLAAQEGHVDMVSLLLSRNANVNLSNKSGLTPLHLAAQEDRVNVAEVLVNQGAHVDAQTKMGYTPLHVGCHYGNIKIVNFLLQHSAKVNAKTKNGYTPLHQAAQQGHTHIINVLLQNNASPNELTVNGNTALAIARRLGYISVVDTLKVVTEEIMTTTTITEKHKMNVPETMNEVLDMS
In words: ITC.
Conditions: not given
GEGQFNEAGSFIGQYTV (domain or fragment) [Nfasc 1198 to 1214 D1205A] displayed a Kd of 1300 nM.
Still for that read-out and setting: next, B1: 9200 nM.
Same read-out and setting: under B2 stands 3200 nM; under B3, 7100 nM; under GEGQFAEDGSFIGQYTV [Nfasc 1198-1214 N1203A], 260 nM.
GEGQFNEKGSFIGQYTV (domain or fragment) [Nfasc 1198 to 1214 D1205K] registered a Kd of 7700 nM.
Molecule GEGQFNEDGAFIGQYTV [Nfasc 1198-1214 S1207A] came in with a Kd of 1200 nM.
Still for that read-out and setting: under GEGQFNEDGSFIGQYAV [Nfasc 1198-1214 T1213A] stands 460 nM; under GEGQFNEDGSFQGQYTV (domain or fragment) [Nfasc 1198 to 1214 I1209Q], 1000 nM; under GEGQFNEDGSQIGQYTV (domain or fragment) [Nfasc 1198 to 1214 F1208Q], 1400 nM.

The next assay addresses T1, AnkG ANK repeats (residues 38-855, …). In words: ITC.
Conditions: not given
The source holds these as a separate data set.
In turn, SDDSLADYGGSVDVQFNEDGSFIGQYSG (domain or fragment) [L1CAM (construct of the ITC assay)] yielded a Kd of 1100 nM.
Same read-out and setting: next, B4: 700 nM.
The molecule B5 registered a Kd of 900 nM.

The next assay has the same target. In words: ITC.
Conditions: not given
The source holds these as a separate data set.
Molecule B6 gave a Kd of 930 nM.
Still for that read-out and setting: under GEGQFNEDGSFIGQYTV (domain or fragment) [Nfasc 1198 to 1214 WT] stands 340 nM.

The next assay has as its target T2, AnkG ANK repeats (residues 38-855, R1-24) (UniProt O70511 38-855).
T2 construct: Ankyrin-G (AnkG), ANK repeats R1-24, residues 38-855; In human Q12955 the same residues seem to stand 8 lower (I277 here = I269 there); Cloned into a modified pET32a vector; the tag is said to be removed only for the crystallisation proteins; also called AnkG R1-24; Ankyrin-G ankyrin repeats; source: E. coli BL21 (DE3), purified (Ni-NTA, size-exclusion chromatography)
T2 sequence (looked up): T1 chain
In words: ITC; VP-ITC at 25 °C; 50 mM Tris, 100 mM NaCl, 1 mM EDTA, 1 mM DTT, pH 7.8; Nfasc proteins (200 μM) in the syringe, AnkG proteins (20 μM) in the cell; one-site binding model. To be noted: both partners purified.
Consider B1, for which the “fold decrease in binding affinity against Nfasc 1198 to 1214 WT” value was around 27 fold.
With B2, the “fold decrease in binding against Nfasc 1198 to 1214 WT” value is around 9 fold.
For the molecule B3, the “fold decrease in binding against Nfasc 1198 to 1214 WT” value was above 20 fold.

Values taken from PMC9396398, “Crystal structure of Ankyrin-G in complex with a fragment of Neurofascin reveals binding mechanisms required for integrity of the axon initial segment” (The Journal of Biological Chemistry, 2022).
